3 molecules from publication PMC11804793, “Characterization of a C-methyltransferase from Streptomyces griseoviridis – crystal structure, mechanism, and substrate scope” (Chemical Science, 2025) can be followed below.

The target in data set [1] is SAM-dependent indole C3-methyltransferase SgMT from Streptomyces griseoviridis (Streptomyces griseoviridis). Nature of the data set: crystal structure; SgMT crystallised in the presence of SAH (cWW included in the sample but not seen); space group P4(1)2(1)2, three protein chains per asymmetric unit; dmin 1.47 Å.
For the next data set, the target named is T1, SgMT (Streptomyces griseoviridis, UniProt A0A918GRY4).
T1 construct: gene GCM10010238_52040; C-terminally His-tagged for kinetics, produced in E. coli BL21 (DE3), Ni-NTA purified; dimer; residues before T7 disordered in crystal
T1 sequence (A0A918GRY4 1-269): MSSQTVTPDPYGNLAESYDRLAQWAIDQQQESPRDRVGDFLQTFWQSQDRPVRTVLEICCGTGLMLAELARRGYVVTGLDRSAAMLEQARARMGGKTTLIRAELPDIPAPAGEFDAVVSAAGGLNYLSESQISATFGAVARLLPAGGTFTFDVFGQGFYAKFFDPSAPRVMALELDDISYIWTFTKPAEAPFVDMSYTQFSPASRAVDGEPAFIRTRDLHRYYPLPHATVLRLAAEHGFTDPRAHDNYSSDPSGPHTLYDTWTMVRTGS
Put plainly: X-ray crystallography, […] Å. The class given is binding. The following applies: non-methylated form of the cofactor, co-crystallised; cWW in the sample but not seen in density.

Substrate in data set [2]: O=C1N[C@@H](Cc2c[nH]c3ccccc23)C(=O)N[C@H]1Cc1c[nH]c2ccccc12
Nature of the data set: MTase Glo luminescence assay (SAH formation), Michaelis-Menten. The class given is biochemical, Streptomyces griseoviridis. Particulars: co-substrate SAM; C-terminally His-tagged enzyme.

As usually defined, the stoichiometry N is a count of units in the complex or per binding partner. The Km is the substrate concentration at which the rate is half of its maximum. In general, kcat refers to the number of substrate molecules converted per active site and unit of time at saturation.

On to “SAM-dependent indole C3-methyltransferase SgMT from Streptomyces griseoviridis (enzyme)”, for which the stoichiometry N in data set [1] was 2. `Nc1ncnc2c1ncn2[C@@H]1O[C@H](CSCC[C@H](N)C(=O)O)[C@@H](O)[C@H]1O` [SAH]: the “X-ray crystallography, 1.47 Å” value on SgMT is recorded as “we crystallised the protein in the presence of the cofactor (using the non-methylated form, SAH)”.

B1: SgMT (Streptomyces griseoviridis) (protein)
chain: T1 sequence (A0A918GRY4 1-269)
notes: C-terminally His-tagged for kinetics, produced in E. coli BL21 (DE3), Ni-NTA purified; dimer; residues before T7 disordered in crystal
With B1, in data set [2], the Km was 10.53 ± 2.01 µM and the kcat is 0.0025 s⁻¹.
